Where no end group is shown, it is not given here.
Legend:
[1] = molecular target: T1, hOPN5-BSA conjugate (human osteopontin peptide CVDTYDGRGDSVVYGLRS coupled to BSA) (human, also: coupled to maleimide-activated BSA (Sulfo-EMCS), site not given here); assay: ELISA, hOPN5-BSA conjugate on the plate, HRP-labeled anti-human IgG (H+L) detection
T1 construct: Immobilized on the ELISA plate at 200 ng/100 uL/well as a BSA conjugate; also called hOPN5 peptide
T1 peptide: CVDTYDGRGDSVVYGLRS
Experimental: (§1) The peptide having the above-described sequence (hereinafter also referred to as the hOPN5 peptide) was reacted with BSA incorporating a maleimide group introduced using Sulfo-EMCS (Dojindo Laboratories) to prepare a hOPN5-BSA conjugate. The hOPN5-BSA conjugate was immobilized at 200 ng/100 μL/well on an ELISA plate (Nunc Company) at 4° C. overnight, and the plate was washed, after which blocking was performed with PBS supplemented with 1% BSA at 4° C. overnight. An antibody sample diluted with PBS supplemented with 1% BSA was added to the plate at 100 μL/well, and they were reacted at 37° C. for 1 hour. Detection was performed using a peroxidase (HRP)-labeled anti-human IgG (H+L) antibody (Wako Pure Chemical Industries, Ltd.). Absorbance at a wavelength of 450 nm was measured using a microplate reader (Molecular Devices Company).

[2] = molecular target: thrombin-cleaved human osteopontin (human), P10451; assay: cell-based or functional assay
[3] = molecular target: human OPN peptide (SVVYGLR sequence of human OPN) (human); assay: method not stated
[4] = molecular target: T1, hOPN5-BSA conjugate (human osteopontin …); assay: ELISA, HRP-labeled anti-E-Tag antibody detection
Experimental: as §1
(§2) The binding activity of the purified R2K1v1.7-scFv to the hOPN5 peptide was measured by an ELISA method. The method was generally the same as described above; in this measurement, HRP-labeled anti-E-Tag antibody was used as the labeled antibody.

BSA = molecular target: T2, BSA (UniProt P02769 25-607); assay: ELISA, detection with HRP-labeled anti-E-Tag antibody
T2 construct: also called negative control BSA
Experimental: as §1, §2

biotinized hOPN5 peptide = molecular target: T3, biotinized hOPN5 peptide (human, also: biotinylated, site not given here); assay: surface plasmon resonance (BIAcore), biotinized hOPN5 peptide on Sensor Chip SA, F(ab')2-PEG at 5 ug/mL
T3 peptide: CVDTYDGRGDSVVYGLRS
Experimental: The binding activity of the purified F(ab′)₂—PEG of R2K1v1.7 to the hOPN5 peptide was confirmed using surface plasmon resonance assay. The biotinized hOPN5 peptide was immobilized on Sensor Chip SA (BIAcore Company), and its binding activity was confirmed using the F(ab′)₂—PEG, previously diluted to 5 μg/mL with HBS-EP buffer (BIAcore Company); the results are shown in FIG. 16. From a rise in the signal, this F(ab′)₂—PEG was confirmed as having the same binding activity to the hOPN5 peptide as that of R2K1v1.7.

Chain of thrombin-cleaved human osteopontin (human), P10451 (P10451 17-314): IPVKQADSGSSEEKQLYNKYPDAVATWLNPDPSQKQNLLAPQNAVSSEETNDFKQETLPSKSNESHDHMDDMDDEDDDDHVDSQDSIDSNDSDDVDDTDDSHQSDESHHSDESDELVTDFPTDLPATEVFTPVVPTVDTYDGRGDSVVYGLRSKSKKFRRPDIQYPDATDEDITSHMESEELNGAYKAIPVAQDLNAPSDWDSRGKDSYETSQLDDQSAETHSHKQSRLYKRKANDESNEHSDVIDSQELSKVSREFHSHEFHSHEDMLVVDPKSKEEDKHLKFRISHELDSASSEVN
T2 sequence (P02769 25-607 limits assumed): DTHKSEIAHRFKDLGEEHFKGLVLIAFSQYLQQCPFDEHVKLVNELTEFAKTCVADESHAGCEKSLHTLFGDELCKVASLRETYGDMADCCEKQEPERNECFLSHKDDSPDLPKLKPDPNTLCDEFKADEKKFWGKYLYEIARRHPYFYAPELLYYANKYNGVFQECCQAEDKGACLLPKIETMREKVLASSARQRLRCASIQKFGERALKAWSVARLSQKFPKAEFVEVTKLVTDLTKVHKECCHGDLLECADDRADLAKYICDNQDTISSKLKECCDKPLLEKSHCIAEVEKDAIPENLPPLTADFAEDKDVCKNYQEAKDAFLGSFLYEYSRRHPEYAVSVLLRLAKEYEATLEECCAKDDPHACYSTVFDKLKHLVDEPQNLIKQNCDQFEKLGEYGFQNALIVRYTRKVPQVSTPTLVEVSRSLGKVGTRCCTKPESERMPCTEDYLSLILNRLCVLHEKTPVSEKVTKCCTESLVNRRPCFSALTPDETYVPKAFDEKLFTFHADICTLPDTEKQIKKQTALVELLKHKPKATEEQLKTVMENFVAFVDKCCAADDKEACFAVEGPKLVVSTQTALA

B1: R2K1v1.8 antibody (antibody, V domains shown)
VH: QVQLVQSGAELVRPGSSVKVSCKASGYTFTDYEMHWVKQTPVHGLEWIGAIHPGRGGTAYNQKFKGKATLTADKSTSTAYMELSSLTSEDTAVYYCTRITGYFDVWGQGTTVTVSS
VL: DVVMTQSPLSLPVTLGQPASISCRSSQSIVHSNGNTYLEWYLQKPGQSPQLLIYKVSNRFSGVPDRFSGSGSGTDFTLKISRVEAEDVGVYYCFQGSHVPLTFGQGTKLEIKR
notes: Only entries with a leader are tied to VH1.8 and VL1.8; also called humanized 2K1 antibody; R2K1 antibody
[1]
  binding result: binds
[2]
  Mean cell count (migration of TNF-alpha-activated human peripheral blood monocytes, 48-well microchemotaxis chamber; antibody 50 ug/mL): 688 cells/mm^3

B2: R2K1v1.7 antibody (antibody, human IgG1, kappa, V domains shown)
VH: QVQLQQSGAEVKKPGASVKVSCKALGYTFTDYEMHWVKQTPVHGLEWIGAIHPGRGGTAYNQKFKGKATLTADKSTSTAYMELSSLTSEDTAVYYCTRITGYFDVWGQGTTVTVSS
VL: DVVMTQSPLSLSVTLGQPASISCRSSQSIVHSNGNTYLEWYLQKPGQSPQLLIYKVSNRFSGVPDRFSGSGSGTDFTLKISRVEAEDVGVYYCFQGSHVPLTFGQGTKLEIKR
[3]
  fold binding affinity against the corresponding monkey OPN peptide: > 100 times

B3: R2K1v1.7-scFv (scFv)
scFv: QVQLQQSGAEVKKPGASVKVSCKALGYTFTDYEMHWVKQTPVHGLEWIGAIHPGRGGTAYNQKFKGKATLTADKSTSTAYMELSSLTSEDTAVYYCTRITGYFDVWGQGTTVTVSSGGGGSGGGGSGGGGSDVVMTQSPLSLSVTLGQPASISCRSSQSIVHSNGNTYLEWYLQKPGQSPQLLIYKVSNRFSGVPDRFSGSGSGTDFTLKISRVEAEDVGVYYCFQGSHVPLTFGQGTKLEIKR
notes: Structure VH1.7-linker-VL1.7, expressed in E. coli HB2151 periplasm, nearly all monomeric by gel filtration; also called scFv of R2K1v1.7; purified R2K1v1.7-scFv; not shown: C-terminal E-Tag from the pCANTAB5E vector, and any joining residues from the NotI site
[4]
  binding result: binds
BSA
  binding result: no binding

B4: polyethylene glycol modified F(ab')2 of the R2K1v1.7 antibody (other, not shown: small tags and cut ends)
heavy: QVQLQQSGAEVKKPGASVKVSCKALGYTFTDYEMHWVKQTPVHGLEWIGAIHPGRGGTAYNQKFKGKATLTADKSTSTAYMELSSLTSEDTAVYYCTRITGYFDVWGQGTTVTVSS
light: DVVMTQSPLSLSVTLGQPASISCRSSQSIVHSNGNTYLEWYLQKPGQSPQLLIYKVSNRFSGVPDRFSGSGSGTDFTLKISRVEAEDVGVYYCFQGSHVPLTFGQGTKLEIKRTVAAPSVFIFPPSDEQLKSGTASVVCLLNNFYPREAKVQWKVDNALQSGNSQESVTEQDSKDSTYSLSSTLTLSKADYEKHKVYACEVTHQGLSSPVTKSFNRGEC
modifications: maleimidated polyethylene glycol SUNBRIGHT ME-120MA coupled to thiol groups activated by DTT reduction
notes: Made by pepsin digestion of R2K1v1.7, reduction of F(ab')2 to Fab' with DTT and coupling with maleimide-PEG; also called F(ab')2-PEG; F(ab')2-PEG of R2K1v1.7
Biotinized hOPN5 peptide
  binding result: binds
